Literature values as cited in article PMC6828933.

Molecular target: eNOS (Homo sapiens) (UniProt P29474)
Chain of UniProt P29474 (P29474 2-1203): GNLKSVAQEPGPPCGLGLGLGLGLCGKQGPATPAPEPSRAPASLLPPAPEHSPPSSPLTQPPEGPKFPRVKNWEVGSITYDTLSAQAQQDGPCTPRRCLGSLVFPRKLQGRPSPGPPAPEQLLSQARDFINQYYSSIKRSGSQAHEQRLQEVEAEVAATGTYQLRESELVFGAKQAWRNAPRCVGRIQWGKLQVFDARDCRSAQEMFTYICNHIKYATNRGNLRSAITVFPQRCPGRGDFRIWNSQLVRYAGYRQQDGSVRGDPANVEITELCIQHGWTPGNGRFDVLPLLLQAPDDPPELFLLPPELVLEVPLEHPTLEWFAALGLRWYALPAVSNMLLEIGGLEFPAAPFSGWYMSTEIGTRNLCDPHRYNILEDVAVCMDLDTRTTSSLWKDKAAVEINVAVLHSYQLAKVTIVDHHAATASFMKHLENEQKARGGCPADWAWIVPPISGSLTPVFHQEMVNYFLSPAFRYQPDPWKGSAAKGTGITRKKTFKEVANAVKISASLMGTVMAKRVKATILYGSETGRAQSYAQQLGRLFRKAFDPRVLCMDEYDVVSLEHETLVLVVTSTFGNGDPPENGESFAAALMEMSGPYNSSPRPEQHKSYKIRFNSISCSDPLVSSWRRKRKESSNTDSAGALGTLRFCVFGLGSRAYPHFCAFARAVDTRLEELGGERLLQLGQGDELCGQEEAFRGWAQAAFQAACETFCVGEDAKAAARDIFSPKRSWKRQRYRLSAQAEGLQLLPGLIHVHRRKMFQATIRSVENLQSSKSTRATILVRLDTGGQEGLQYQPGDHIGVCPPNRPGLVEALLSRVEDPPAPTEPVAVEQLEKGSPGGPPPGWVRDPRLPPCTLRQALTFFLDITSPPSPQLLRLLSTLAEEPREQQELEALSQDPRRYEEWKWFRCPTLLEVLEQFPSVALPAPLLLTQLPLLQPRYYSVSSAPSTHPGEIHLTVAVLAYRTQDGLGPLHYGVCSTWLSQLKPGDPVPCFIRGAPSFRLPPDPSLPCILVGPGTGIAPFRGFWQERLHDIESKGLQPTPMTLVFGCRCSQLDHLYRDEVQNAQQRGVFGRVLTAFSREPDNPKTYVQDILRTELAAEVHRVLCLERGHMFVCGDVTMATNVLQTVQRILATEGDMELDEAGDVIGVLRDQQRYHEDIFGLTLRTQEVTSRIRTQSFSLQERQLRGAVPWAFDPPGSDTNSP

Kd: 0.042 µM
Substance: Caveolin-1 90-99 (from UniProt Q03135)
